Here are results for two molecules from patent US7700353B2, “Compositions and methods for inducing apoptosis in tumor cells” (E-P Therapeutics, Inc., priority 1998, dated 2010).

Assay [1] concerns MCF-7, HT-29, HepG2, ZR-75-1, SK-N-F1, or HC cells. Kind of assay: Morphological change assay in tumor cell lines. It is filed as cell-based, human and fish. On the procedure:
Approximately 1-2×10^5 of MCF-7, ZR-75-1, HT-29, HepG2, 293GP, HC or SK-N-F1 cells re-suspended in their respective basal medium without fetal bovine serum (FBS) were plated in a 6-well culture chamber. Prior to plating cells, an acid-washed coverslip was placed in each well of the culture chamber. Recombinant rainbow trout E-peptides (rtEa-2, rtEa-3 or rtEa-4 peptide at 0.8 µM), human IGF-I (hIGF-1, 2.5 nM) or the same amount of control protein was added to each well and the cell cultures were incubated at 37° C. under a humidified atmosphere of 5% CO2. The control protein was prepared from E. coli cells carrying the expression plasmid but without the E-peptide gene according to the purification method described by Tian et al. (1999). Coverslips were removed from the culture chamber 24 hours after initiation of the treatment and observed under an Olympic inverted microscope equipped with differential interference phase contrast objective lenses or phase contrast objective lens (final magnification, 200×). The morphological change assay was performed at least 10 times with different batches of Ea-4 peptide preparations.
Oncogenic transformed or established cancer cells derived from human and fish (MCF-7, HT-29, HepG2, ZR-75-1, SK-N-F1, or HC cells) were plated in their respective serum-free basal medium supplemented with 0.8 µM of the trout recombinant Ea-4-peptide, with the control protein, or with 2.5 nM of the recombinant hlGF-I and the cultures were examined 24 hours later under an inverted microscope equipped with differential interference phase contrast objectives. […] The rtEa-4 peptide treated cells developed several pseudopodia-like structures to establish contact with neighboring cells similar to that seen in untransformed or non-malignant cells.
Because each of these tumor cell lines obtained from ATCC contains a mixed population of tumorous and nontumorous cells, only between 25-40% of the cells from each cell line responded to induction by rtEa-4-peptide. […]

In assay [2] the test system is SK-N-F1 neuroblastoma cells. Kind of assay: Neurite-like process outgrowth / morphological differentiation. It is filed as cell-based, human. The protocol:
Cells under various treatment conditions were maintained at 37° C. in a 5% CO2 incubator and observed from 30 minutes to 72 hours after incubation (synthetic human Ea- and Eb-peptide were chemically synthesized at the Biotechnology Center, University of Connecticut). For treatment with synthetic hEa, hEb peptide or hlGF-I, 1×10^5 cells were plated in each well of a 12-well culture plate in DMEM/F12 (1:1) supplemented with 0.4-3.2 µM of synthetic hEa-, hEb-peptide and/or 5-10 nM of hlGF-I.
Neuroblastoma SK-N-F1 cells (10^5) were seeded into 12-well culture plates in DMEM/F12 (1:1) supplemented with 0-3.2 µM of synthetic hEb-peptide, or buffer control, and incubated at 37° C. in a 5% CO2 humidified incubator.
Cell images were taken by random sampling at various time points using a MicroMAX CCD camera (Princeton Instruments, Bozeman, Mont.). Approximately 1000 cells were analyzed from each treatment, carried out in triplicate. Cells with neurites longer than one cell body diameter (>20 µm for SK-N-F1 cells) were scored as positive neurite-bearing (Fagerstrom, et al., Cell Growth Differ., 7: 775-85, 1996; Morrione, et al., Cancer Res. 60: 2263-72, 2000). The percentage of neurite-bearing cells and the respective length of neurites were measured with reference to a stage micrometer and analyzed using the public domain NIH Image program (developed at the U.S. National Institutes of Health and available on the Internet at http://rsb.info.nih.gov/nih-image).
To further characterize the dose-response relationship and time course of hEb peptide in inducing neurite-like process outgrowth, SK-N-F1 neuroblastoma cells were treated with various amounts (0 to 3.2 µM) of hEb peptide over a course of 72 hours. Images of cells were taken by random sampling after 1 h, 6 h, 24 h, 48 h and 72 h of incubation (see FIG. 11B). The average length of neurite-like process outgrowth was measured by random sampling of more than 1000 cells at various time points. The neurite-like processes started to be visible as early as 0.5-1 hour after the addition of hEb peptide. The effect of hEb peptide in inducing neurite-like outgrowth was dose-dependent, as evident from a comparison of cells treated with 0.4 µM hEb peptide with those treated with 0.8-3.2 µM hEb peptide over 24-72 hours. The maximum effect of hEb peptide was observed 48 hours after the addition of 3.2 µM hEb peptide, with an average neurite length of 50 to 60 µm (Table 1, below).

The test system of assay [3] is neuroblastoma SK-N-F1 cells. Kind of assay: Soft agar colony formation (hEb peptide). The format is cell-based, human. The conditions noted are these: 3.2 μM. The protocol: The effect of hEb-peptide on in vitro colony formation was tested in the presence or absence of either the mature hlGF-I or fetal bovine serum (FIG. 12). Human neuroblastoma SK-N-F1 cells (10^4) were mixed with 0.4% soft agar supplemented with or without hEb peptide (3.2 µM), IGF-I (5 nM) and/or fetal bovine serum (2.5%), as indicated. The cell mixtures were seeded on top of a solidified basal medium DMEM/F12 (1:1) containing 0.5% agar. Medium supplemented with various peptides or serum were overlaid on top of the solidified cell layer followed by a two-week period incubation at 37° C. in a 5% CO2 humidified incubator. The percentage of cells formed into colonies with a diameter greater than 100 µm Macpherson, Tissue culture methods and applications, pp 276-80: N.Y. Academic Press, 1973) were scored in triplicate and subjected to Student t-test analysis. At least three independent assays under each treatment conditions were carried out.

B1: rtEa-4: recombinant Ea-4 peptide of rainbow trout pro-IGF-I, 74 amino acid residues (SEQ ID NO: 2) (protein)
chain: RSVRAQRHTDMPRTPKVSTAVQNVDRGTERRTAQHPDKTKTKKKPLSGHSHPSCKEVHQKNSSRGNTGGRNYRM
modifications: Oncorhynchus mykiss
As to B1, in assay [1] (0.8 μM, 24 hours, serum-free basal medium), the morphological change result was “flattened out and attached tightly to the culture dish”. Further, the “cells from each cell line responding to induction” value in assay [1] (mixed population cell lines from ATCC) is 25-40%.

B2: hEb: chemically synthesized human Eb peptide of pro-IGF-I, 77 amino acid residues (SEQ ID NO:1) (peptide, listed as Homo sapiens)
chain: RSVRAQRHTDMPKTQKYQPPSTNKNTKSQRRKGWPKTHPGGEQKEGTEASLQIRGKKKEQRREIGSRNAECRGKKGK
On to B2, for which the Neurite length is listed as 31 ± 7.6 μm in assay [2] (0.4 μM, 6 h); 29 ± 5.2 μm in assay [2] (0.4 μM, 24 h); 35 ± 0.9 μm in assay [2] (0.4 μM, 48 h); 32 ± 3.1 μm in assay [2] (0.4 μM, 72 h); 33 ± 2.1 μm in assay [2] (0.8 μM, 2 h); 36 ± 0.6 μm in assay [2] (0.8 μM, 6 h). For the same molecule, the Neurite length in assay [2] (0.8 μM, 24 h) was found to be 38 ± 3.9 μm; in assay [2] (0.8 μM, 48 h) it was 43 ± 1.0 μm; in assay [2] (0.8 μM, 72 h), 41 ± 2.5 μm; in assay [2] (1.6 μM, 6 h), 38 ± 3.5 μm; in assay [2] (1.6 μM, 24 h) it was 39 ± 1.8 μm; in assay [2] (1.6 μM, 48 h), 47 ± 3.9 μm. Further, the Neurite length in assay [2] (1.6 μM, 72 h) is reported as 48 ± 2.8 μm; in assay [2] (3.2 μM, 6 h), 39 ± 2.2 μm; in assay [2] (3.2 μM, 24 h) it was 45 ± 1.7 μm; in assay [2] (3.2 μM, 48 h), 52 ± 3.7 μm; in assay [2] (3.2 μM, 72 h), 48 ± 2.7 μm. For the same molecule, in assay [2] (1.6 μM or 3.2 μM), the morphological change entry is “differentiated into a neuron-like morphology”. In addition, in assay [2] (after addition of peptide), the “time at which neurite-like processes started to be visible” value is 0.5 to 1 h. Besides, the “increase in the percentage of neurite-bearing cells” value in assay [2] (hEb-peptide combined with mature hIGF-I, 1-4 hours after stimulation) is 20-30%. For the same molecule, the “in vitro effective concentration” value in assay [2] (synthetic peptide) was in the range of 0.4 to 3.2 µM. The “inhibition of colony formation” value is 64% in assay [3] (absence of serum and growth factors, colonies >100 μm); 73% in assay [3] (presence of FBS (2.5%)); 59% in assay [3] (presence of hIGF-I (5 nM)). In addition, the “inhibitory effect on anchorage-independent growth” value in assay [3] (over all medium conditions) is recorded as 59-73%.
